Results as given in patent US20160039884A1.

Key:
Experiment in all cases: cell-based or functional assay
[1] = molecular target: integrin receptors
[2] = molecular target: α5 integrin subunit (UniProt P08648)
[3] = molecular target: α5β1 integrin (UniProt P08648)
[4] = molecular target: αv integrin (UniProt P06756)
UniProt P06756, sequence (P06756 31-1048 limits assumed): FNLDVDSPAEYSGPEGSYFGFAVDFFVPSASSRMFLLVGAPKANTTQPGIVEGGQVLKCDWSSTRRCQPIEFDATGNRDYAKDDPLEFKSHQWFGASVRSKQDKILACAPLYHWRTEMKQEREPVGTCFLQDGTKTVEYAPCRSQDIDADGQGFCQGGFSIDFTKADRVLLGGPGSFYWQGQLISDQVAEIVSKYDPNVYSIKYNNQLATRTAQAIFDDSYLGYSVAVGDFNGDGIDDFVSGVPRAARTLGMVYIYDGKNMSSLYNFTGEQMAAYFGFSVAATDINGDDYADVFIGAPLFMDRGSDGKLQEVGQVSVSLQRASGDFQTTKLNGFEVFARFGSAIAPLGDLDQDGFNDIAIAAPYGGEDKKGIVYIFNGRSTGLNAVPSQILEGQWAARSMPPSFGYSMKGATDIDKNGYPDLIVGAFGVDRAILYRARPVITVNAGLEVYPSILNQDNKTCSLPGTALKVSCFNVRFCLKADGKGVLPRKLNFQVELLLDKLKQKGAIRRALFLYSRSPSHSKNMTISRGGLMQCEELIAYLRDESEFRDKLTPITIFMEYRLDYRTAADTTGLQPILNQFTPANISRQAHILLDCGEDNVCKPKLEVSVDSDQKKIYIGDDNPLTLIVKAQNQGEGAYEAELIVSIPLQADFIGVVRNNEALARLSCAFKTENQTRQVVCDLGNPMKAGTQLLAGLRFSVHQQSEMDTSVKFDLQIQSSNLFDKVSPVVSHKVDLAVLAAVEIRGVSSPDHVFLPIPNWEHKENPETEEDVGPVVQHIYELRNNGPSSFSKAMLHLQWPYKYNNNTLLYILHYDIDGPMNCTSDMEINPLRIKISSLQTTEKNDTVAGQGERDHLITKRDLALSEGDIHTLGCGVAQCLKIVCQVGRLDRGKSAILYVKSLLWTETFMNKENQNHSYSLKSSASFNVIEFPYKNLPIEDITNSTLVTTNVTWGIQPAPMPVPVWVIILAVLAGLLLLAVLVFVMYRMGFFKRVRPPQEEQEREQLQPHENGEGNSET

| Substance | Fusion (content mixing fusion assay, percent of wild type F) [1] [%] | further results |
| --- | --- | --- |
| hMPV F protein mutant D331R | 107 |  |
| hMPV F protein mutant G330A | 20 |  |
| hMPV F protein mutant G330S | 9 |  |
| hMPV F protein (wild type, strain NL/1/00), expressed from pCAGGS-F | 100 | reduction of fusion activity (syncytium count) after siRNA knockdown of α5 [2]: 80%; inhibition of cell-cell fusion (content-mixing fusion assay) by anti-α5β1 antibody [3]: 80%; inhibition of cell-cell fusion (content-mixing fusion assay) by anti-αv antibody [4]: 80%; reduction of fusion activity (syncytium count) after siRNA knockdown of αv [4]: 60% |
| hMPV F protein mutant D331A | 58 |  |
| hMPV F protein mutant R329D | 13 |  |
| hMPV F protein mutant R329K | 72 |  |
| hMPV F protein mutant R329A | 13 |  |
| hMPV F protein mutant D331E | 118 |  |
